{
  "source": "paper PMC5004148",
  "key": {"[1]": {"molecular_target": "transmembrane truncated VP24 (residues 28-208) (White spot syndrome virus (WSSV))", "assay": "crystal structure; X-ray, SAD phasing, 2.4 Å, space group I 2(1) 3; trimer by the crystallographic three-fold axis; 0.1 M Tris-HCl pH 8.5, 2.75 M ammonium acetate, 10 mM ATP as additive, 16 °C"}, "[2]": {"molecular_target": "transmembrane truncated VP24 (residues 28-208) (White spot syndrome virus (WSSV))", "assay": "cross-linking; purified VP24 in PBS (around 0.6 mg/ml in 40 ul) with rising glutaraldehyde, room temperature, 4 h; 15% SDS-PAGE, Coomassie blue"}},
  "data": [
    {"substance": "transmembrane truncated VP24 (residues 28-208) (domain or fragment)", "values": [
      {"measurement": "stoichiometry N", "setting": "[1]", "result": 3},
      {"measurement": "stoichiometry N", "setting": "[2]", "result": 3}
    ]}
  ]
}
